Assay results taken from US20230348569A1.

Assays:
[1] = molecular target: SARS-CoV-2 spike protein (S-wt, Wuhan-Hu-1, NCBI Accession Number MN908947.3) on VSV-SARS-CoV-2-S pseudoparticles (SARS-CoV-2) (UniProt P0DTC2); assay: cell-based or functional assay
[2] = molecular target: MERS.mFc (mAb2663-L1) (MERS-CoV) (UniProt K9N5Q8); assay: Luminex bead binding, supernatant
[3] = molecular target: MERS.hFc (mAb2664-L1) (MERS-CoV) (UniProt K9N5Q8); assay: Luminex bead binding, supernatant
[4] = molecular target: Bt-MERS.hFc (mAb2664-L2) (MERS-CoV) (UniProt K9N5Q8); assay: Luminex bead binding, supernatant

Substance | neutralization potency IC50 [1] | MFI [2] | MFI [3] | MFI [4]
mAb10934 (antibody) | 0.0544 nM | – | – | –
mAb10936 (antibody) | 0.111 nM | – | – | –
mAb10987 (antibody) | 0.0406 nM | 196 MFI | 235 MFI | 172 MFI
